In patent US20210403580A1 (AJOU UNIVERSITY INDUSTRY ACADEMIC COOPERATION FOUNDATION, published 2021):

Molecular target: T1, hIL-4Rα (Sino Biological) (human, UniProt P24394 26-232)
T1 construct: Bought protein immobilised on the CM5 chip for SPR
Assay: SPR (Biacore 2000), hIL-4Rα (Sino Biological) immobilised to about 500 RU on CM5, IgG as analyte
Procedure: Specifically, hIL-4Rα (Sino Biological) was diluted to a concentration of […] in a 10 mM NaAc buffer (pH 4.0) and immobilized to about 500 response units (RU) on a CM5 sensor chip (GE Healthcare). […] After binding and dissociation analysis, regeneration of the CM5 chip was carried out by flushing the CM5 chip with a buffer solution (10 mM Glycine, pH 2.0) at a flow rate of 30 μl/min for 90 seconds. The sensorgram, obtained by binding for 90 seconds and dissociation for 900 seconds, was normalized and the value of a blank cell was subtracted therefrom to calculate the affinity.
In this manner, affinity may vary depending on the level of antigen immobilization.

B1: 4R25 (antibody, V domains shown)
VH: EVQLLESGGGLVQPGGSLRLSCAASGFTFSNYAMSWVRQAPGKGLEWVSWISPNSGNIYYADSVKGRFTISRDNSKNTLYLQMNSLRAEDTAVYYCARRPLSAAWSHSSYYNAMDVWGQGTLVTVSS
VL: QSVLTQPPSAPGTPGQRVTISCTGSSSNIGSNSVNWYQQLPGTAPKLLIYDDSHRPSGVPDRFSGSKSGTSASLAISGLRSEDEADYYCDAWDSSLSAYVFGGGTKLTVL
- Kd: 1.21 nM
- koff: 0.000177 s⁻¹
- kon: 147000 M⁻¹ s⁻¹
